Measurements reported in US11192948B2, “Compositions and methods for inhibiting cancer stem cells” (MedImmune Limited, priority 2015, dated 2021).

Experiments:
Pan02.13 cells [1] = test: Percentage of CSCs (EpCAM+CD24+CD44+) in Pan02.13 by flow cytometry; format: cell-based; conditions: 4 days; for effect of single agent on percentage of CSCs: LX5140110 50 μg/mL or gemcitabine 100 ng/mL
Description: (§1) Given that chemotherapies and even some targeted therapies can enrich for CSCs despite the reductions in tumor burden, combination approaches using a CSC-specific targeted therapy in combination with these agents becomes an attractive approach to treatment of cancer patients. Since LX5140110 targets CSCs specifically, we sought to address the combined effects of the current standard of care chemotherapy for pancreatic cancer, gemcitabine, and LX5140110. First the ability of gemcitabine to inhibit the Pan02.13 was tested. Pan02.13 cells were plated under standard tissue culture conditions with and without 100 ng/mL gemcitabine in a tissue culture coated flat-bottomed plate (n=10). […] To determine the effects of treatments on CSCs, Pan02.13 was treated in standard tissue culture conditions for 4 days with either 50 μg/mL of LX5140110 or a control antibody and with or without 100 ng/mL of gemcitabine (GEM) then analyzed for the percentage of CSCs by flow cytometry. The percentage of CSCs (EpCAM+CD24+CD44+) was determined for each treatment condition. The cells were first gated for single, viable cells using scatter and DAPI. Fluorescence minus one (FMO) controls were utilized for gating, with the EpCAM+population analyzed for CD44 and CD24 expression.

Pan02.13 cells [2] = test: Pan02.13 cell growth under standard tissue culture conditions; format: cell-based; conditions: 100 ng/mL; P<0.001
Description: as §1

Cytivia cardiomyocytes = test: Doxorubicin-mediated cardiomyocyte damage (calcium, viability imaging); format: cell-based
Procedure: Next, we sought to determine if inhibiting LOX1 could block doxorubicin-mediated cardiomyocyte damage. Cytivia™ cardiomyocytes were purchased from GE Healthcare and plated following manufacturer's instructions with the substitution of bovine fibronectin for human fibronectin. Cells were allowed to adhere for 4 days and then medium was changed. At days 5-7, medium was removed and cells were pre-incubated with the indicated concentration of LX5140110 for 4 hours prior to the addition of 5 μM doxorubicin (DOX). After addition of DOX, cells were incubated for a further 24 hours. After incubation, media was removed and cells were stained with DAPI (1:4000 dilution of 1 mg/mL), TOTO-3 (1 uL of dye solution per 1 mL of medium), and 5 μM Fluo-4. Cells were incubated for 1 hour at 37° C. and then imaged on Image on GE IN Cell Analyzer. Viability was determined by obtaining the number of cells excluding DAPI and TOTO-3 dyes while Fluo-4 was used to determine calcium concentrations. It is known that cardiomyocytes show an increase in calcium load during endotoxin induced cardiac dysfunction. (Thompson et al., Pediatric Research (2000) 47: 669-676).

colorectal cell lines = test: Inhibition of CSCs in colorectal cell lines; format: cell-based
PA-0143 PDX tumors = test: In vivo study with PA-0143 PDX tumors; set-up: species or system NSG mice
Procedure: An in vivo study with PA-0143, was run to determine the ability of LX5140110 to inhibit CSCs in vivo. PA-0143 PDX tumors were passaged by trocar implantation of tumor fragments into 6-8 week old NSG mice (NOD.Cg-Prkdc^scid Il2rg^tmIWjl/SzJ) and allowed to grow to −300 mm^3 at which point they were randomized and treated with subcutaneous injections of either a control IgG1 mAb or LX5140110 at 30 mg/kg twice-weekly for 2 weeks (FIG. 8A). […] Twenty-four hours after the last dose of antibodies, tumors were removed from a subset of the mice and analyzed for the percentage of CSCs.

[3] = tested on: PA-0143 pancreatic PDX CSCs; test: Tumor sphere formation of pancreatic PDX model PA-0143; format: cell-based, human; conditions: compared to STEM0268
Procedure: DARPins showing the preferred binding patterns were screened for their ability to inhibit sphere formation using one of the pancreatic PDX models (PA-0143) used for selections. Briefly, following dissociation of the tumor cells they were plated in 96-well ultra-low attachment plates containing MSCGM with 50 ug/mL DARPins. All DARPins were tested in triplicate. After 4 days plates were read and inhibitory molecules were identified as showing inhibitory activity at least 1 standard deviation (SD) from the mean of the untreated and control DARPin-treated wells. A second assay based on expression of EZH2 in CSCs was also run. We have previously shown in pancreatic cancer that CSCs can be identified based on their high expression of EZH2 and trimethylation of histone 3 on lysine 27 (Van Vlerken L et al. 2013 EZH2 is required for breast and pancreatic cancer stem cell maintenance and can be used as a functional cancer stem cell reporter Stem Cells Transl Med 2(1):43-52). Using HPAC cells, the EZH2 assay was performed as previously described with the inclusion of 50 μg/mL DARPin. […]
STEM0268 inhibits cancer stem cells. […] Briefly, cells were dissociated using 200 units/mL of collagenase IV plated, washed counted and resuspended at 30,000 cells/mL in MSCGM (Lonza) and plated in an ultra-low attachment 6-well plate. […]

[4] = tested on: PA-0165 pancreatic PDX CSCs; test: Tumor sphere formation of pancreatic PDX model PA-0165; format: cell-based, human; conditions: compared to STEM0268
Procedure: STEM0268 inhibits cancer stem cells. […] Briefly, cells were dissociated using 200 units/mL of collagenase IV plated, washed counted and resuspended at 30,000 cells/mL in MSCGM (Lonza) and plated in an ultra-low attachment 6-well plate. Antibodies were added to appropriate wells at 50 μg/mL. Following incubation for 4 days, spheres were harvested, dissociated and replated in a similar manner to generate secondary spheres and assess the ability of CSCs to self-renew. […] Salinomycin (1 μM) served as the positive control in both of these experiments (Gupta P B et al. 2009).

pancreatic cell lines = test: Inhibition of CSCs in pancreatic cell lines; format: cell-based; conditions: multiple pancreatic cell lines
Description: To further confirm the ability of a LOX1 inhibitor to inhibit CSC sphere formation, a LOX1-specific monoclonal antibody (mAb), LX5140110, which comprises a VL comprising SEQ ID NO: 33 and a VH comprising SEQ ID NO: 4 (see, e.g., Table 1), was compared to STEM0268 for their ability to inhibit sphere formation in the pancreatic PDX models.

[5] = 50 μg/mL with 100 ng/mL gemcitabine
[6] = 4 hours pre-incubation before 5 μM DOX

| Molecule | effect of single agent on percentage of CSCs (Pan02.13 cells [1]) | cell numbers (Pan02.13 cells [2]) | viability of cardiomyocytes (Cytivia cardiomyocytes; 5 μM DOX, 24 hours) | increase of calcium concentration (Cytivia cardiomyocytes; 5 μM DOX, 24 hours, compared to untreated controls) | effect on gemcitabine-induced enrichment of CSCs (Pan02.13 cells [1]; [5]) | percentage of CSCs of viable cells (Pan02.13 cells [1]; [5]) | inhibition of CSCs (colorectal cell lines) | tumor growth (PA-0143 PDX tumors; 30 mg/kg subcutaneous twice-weekly for 2 weeks, vs vehicle and control IgG1, P<0.001) | percentage of CSCs in tumors (PA-0143 PDX tumors; 24 hours after last dose, compared to vehicle control) | inhibition of sphere formation (in words) [3] | inhibition of sphere formation (in words) [4] | inhibition of CSCs (pancreatic cell lines) | effect on DOX-induced accumulation of calcium (Cytivia cardiomyocytes; [6]) | effect on DOX-induced decrease of viability (Cytivia cardiomyocytes; [6]) |
| --- | --- | --- | --- | --- | --- | --- | --- | --- | --- | --- | --- | --- | --- | --- |
| Nc1ccn([C@@H]2O[C@H](CO)[C@@H](O)C2(F)F)c(=O)n1 [gemcitabine, reference compound] | enriched for CSCs | significant reduction in cell numbers | – | – | – | – | – | – | – | – | – | – | – | – |
| COc1cccc2c1C(=O)c1c(O)c3c(c(O)c1C2=O)C[C@@](O)(C(=O)CO)C[C@@H]3O[C@H]1C[C@H](N)[C@H](O)[C@H](C)O1 [DOX, doxorubicin, reference compound] | – | – | decreased viability | approximately 2.5 fold | – | – | – | – | – | – | – | – | – | – |
| LX5140110: LOX1-specific monoclonal antibody; VH SEQ ID NO: 4, VL SEQ ID NO: 33 (antibody, V domains shown, LX5140110 Heavy Chain sequence; LX5140110 Light Chain sequence) VH: QVQLVQSGAEVKKPGASVKVSCKVSGYTLTELSMHWVRQAPGKGLEWMGGFDPEDFKYHTHQKFQGRVTMTEDTSTDTAYMELSSLRSEDTAVYYCALVWGTQGKGVRGWDYYYGMDVWGQGTTVTVSS VL: QSVVTQPPSVSGAPGQRVTISCTGSSSNIGAGYDVHWYQQLPGTAPKLLIYGNSNRPSGVPDRFSGSKSGTSASLAITGLQAEDEADYYCQSYDSSLSGWVFGGGTKLTVL | slight reduction of CSCs | – | – | – | inhibited this increase | 0.62% | able to inhibit CSCs | only slightly reduced tumor growth | significant reduction of CSCs | inhibited sphere formation | inhibited sphere formation | able to inhibit CSCs | able to inhibit the accumulation of calcium | reversed |
